Data on 1 substance can be found in publication PMC3887093.

This assay addresses Plasmodium vivax Duffy binding protein region II (DBP-RII), recombinant (Plasmodium vivax) (UniProt P22290). Briefly: ITC; DARC1-60 at 1.3 mM titrated into 1.4 mL of 130 µM DBP-RII; PBS; 10°C; independent two-site binding model after subtraction of both controls; molar ratios in monomers of DBP-RII.
Chain of UniProt P22290 (P22290 211-525): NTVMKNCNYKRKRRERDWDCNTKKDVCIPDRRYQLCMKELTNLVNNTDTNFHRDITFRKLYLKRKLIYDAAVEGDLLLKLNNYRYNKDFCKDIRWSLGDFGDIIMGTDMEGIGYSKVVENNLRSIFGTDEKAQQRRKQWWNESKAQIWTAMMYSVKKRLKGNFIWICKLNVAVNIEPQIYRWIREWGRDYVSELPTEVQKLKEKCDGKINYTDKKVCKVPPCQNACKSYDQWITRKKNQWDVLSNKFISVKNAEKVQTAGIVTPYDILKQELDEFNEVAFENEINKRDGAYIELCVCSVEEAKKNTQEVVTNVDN

For “DARC N-terminal ectodomain, residues 1-60, unsulfated, three cysteines mutated to alanine (from UniProt Q16570 1-60) (domain or fragment)”, the Kd1 (first binding event, heterotrimer; two independent sites fit) is 2180 nM; the Kd2 (second binding event, heterotetramer; two independent sites fit) was found to be 88.5 nM; the Kd of the first binding event (two independent sites fit) turned out to be 2.18 µM; the dH1 (first binding event) is -2.66 kcal/mol. The dH2 (second binding event) is -3.34 kcal/mol; the n1 (first binding event, per monomer of DBP-RII) came to 0.44; the n2 (second binding event, per monomer of DBP-RII) was determined as 0.5; the stoichiometry N worked out at 1.
